Experimental data published in patent US20250250357A1 (NANJING ZAIMING PHARMACEUTICAL, published 2025).
Read-outs that look alike come from different tables or passages of the source.

Columns and labels:
[1] = target: T1, human MSLN protein endogenously expressed on OVCAR3 tumor cells (human, UniProt Q13421 296-598); test: FACS on OVCAR3 cells
T1 construct: whole, on cells; Endogenous target on OVCAR3 cells; kept apart from the recombinant full-length construct; also called mesothelin

[2] = target: T2, human MSLN full-length protein (NCBI: AAH09272.1) expressed on HEK293T-hMSLN-B8 cells (human, UniProt Q13421 296-598); test: FACS on HEK293T-hMSLN-B8 cells
T2 construct: Whole encoded precursor

[3] = target: T3, human MSLN-R3 protein (Met487-Ser606 of NCBI AAH09272.1) expressed on HEK293T-hMSLN-R3 cells (human, UniProt Q13421 487-606); test: FACS on HEK293T-hMSLN-R3 cells
T3 construct: also called Region3

[4] = target: T4, monkey MSLN full-length protein (NCBI: XP_028696439.1) expressed on HEK293T-monkey MSLN cells (monkey); test: FACS on HEK293T-monkey MSLN cells
T4 construct: Whole encoded precursor
T4 chain: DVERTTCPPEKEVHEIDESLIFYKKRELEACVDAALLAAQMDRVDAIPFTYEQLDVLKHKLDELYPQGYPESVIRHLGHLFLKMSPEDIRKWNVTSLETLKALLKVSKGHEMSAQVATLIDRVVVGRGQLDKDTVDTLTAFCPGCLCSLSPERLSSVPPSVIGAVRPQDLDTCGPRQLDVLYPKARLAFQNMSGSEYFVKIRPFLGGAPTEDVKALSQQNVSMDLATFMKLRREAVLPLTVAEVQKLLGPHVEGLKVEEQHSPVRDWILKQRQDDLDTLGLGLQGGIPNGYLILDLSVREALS

[5] = target: T5, human MSLN protein endogenously expressed on OVCAR3 tumor cells (human, UniProt Q13421 296-598); test: FACS on OVCAR3 cells
T5 construct: whole, on cells; endogenous expression on a tumor cell line; also called human mesothelin

[6] = target: T6, human MSLN-R3 protein expressed on HEK293T cells (HEK293T-hMSLN-R3) (human, UniProt Q13421 487-606); test: FACS on HEK293T-hMSLN-R3 cells;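 note: chimeric antibodies incubated with cells on ice for 2 h, binding read by flow cytometry as mean fluorescence intensity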
T6 construct: C-terminal limit uncertain

[7] = target: T7, human MSLN-FL-his protein (human, UniProt Q13421 296-580); test: competitive ELISA; row Tab021; note: test concentration or dose not given here
T7 construct: made in HEK293E cells, purified on nickel column; also called hMSLN-FL-his; human MSLN full-length protein; not shown: His tag

[8] = target: T7, human MSLN-FL-his protein; test: competitive ELISA; row Tab142; note: test concentration or dose not given here
[9] = target: T7, human MSLN-FL-his protein; test: competitive ELISA; row F8-29.1; note: test concentration or dose not given here
[10] = target: T7, human MSLN-FL-his protein; test: competitive ELISA; row F8-32.3; note: test concentration or dose not given here
[11] = target: T7, human MSLN-FL-his protein; test: competitive ELISA; row F8-8.22; note: test concentration or dose not given here
[12] = target: T7, human MSLN-FL-his protein; test: competitive ELISA; row F8-9.16; note: test concentration or dose not given here
[13] = target: T7, human MSLN-FL-his protein; test: competitive ELISA; row F8-22.23; note: test concentration or dose not given here
[14] = target: T7, human MSLN-FL-his protein; test: competitive ELISA; row F8-24.14; note: test concentration or dose not given here
[15] = target: T7, human MSLN-FL-his protein; test: competitive ELISA; row F8-28.23; note: test concentration or dose not given here
[16] = target: T7, human MSLN-FL-his protein; test: competitive ELISA; row F8-33.12; note: test concentration or dose not given here
[17] = target: T7, human MSLN-FL-his protein; test: competitive ELISA; row F8-36.12; note: test concentration or dose not given here
[18] = target: T7, human MSLN-FL-his protein; test: SPR (Biacore), antibody captured on Protein A chip;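 note: flow cell at 25 °C, antigen injected for 240 s at five concentrations from 200 nM downward, dissociation followed up to 600 s, double-referenced, fitted with Langmuir 1:1 model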

T2 sequence (Q13421 other isoform, or with tags, fused parts or gaps limits assumed): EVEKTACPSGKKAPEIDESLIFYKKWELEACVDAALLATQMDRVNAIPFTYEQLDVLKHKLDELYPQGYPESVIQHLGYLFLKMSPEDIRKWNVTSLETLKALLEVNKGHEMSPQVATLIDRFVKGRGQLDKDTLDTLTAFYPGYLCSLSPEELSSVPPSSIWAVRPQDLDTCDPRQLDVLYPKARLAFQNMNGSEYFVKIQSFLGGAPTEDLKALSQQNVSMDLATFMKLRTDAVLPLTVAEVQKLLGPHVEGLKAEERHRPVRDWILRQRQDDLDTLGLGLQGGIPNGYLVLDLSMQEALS
T6 sequence (Q13421 495-614): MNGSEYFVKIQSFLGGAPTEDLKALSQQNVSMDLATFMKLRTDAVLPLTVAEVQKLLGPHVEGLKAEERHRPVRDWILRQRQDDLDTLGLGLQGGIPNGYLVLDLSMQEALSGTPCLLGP
T3 sequence (Q13421 495-614): as above
T7 sequence (Q13421 other isoform, or with tags, fused parts or gaps): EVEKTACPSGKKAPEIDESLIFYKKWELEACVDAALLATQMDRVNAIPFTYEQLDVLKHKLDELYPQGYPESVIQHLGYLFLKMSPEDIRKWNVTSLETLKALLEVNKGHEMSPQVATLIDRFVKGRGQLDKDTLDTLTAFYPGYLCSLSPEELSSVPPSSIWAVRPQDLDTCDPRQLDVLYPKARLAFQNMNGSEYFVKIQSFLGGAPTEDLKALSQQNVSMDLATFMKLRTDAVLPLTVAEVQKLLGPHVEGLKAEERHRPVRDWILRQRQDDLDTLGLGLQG

B1: S009-F1.7.14 (antibody, human IgG1, kappa)
heavy: not shown
light: QIVLTQSPAIMSASPGEKVTISCSASSSVSYMYWYQQKPGSSPKPWISRTSNLASGVPARFSGSGSGTSYSLTISSMEAEDAATYYCQQYHSYPPTLGAGTKLELKRTVAAPSVFIFPPSDEQLKSGTASVVCLLNNFYPREAKVQWKVDNALQSGNSQESVTEQDSKDSTYSLSSTLTLSKADYEKHKVYACEVTHQGLSSPVTKSFNRGEC
notes: human-murine chimeric antibody, human IgG1/kappa constant regions
[1]
  Maximum mean fluorescence intensity: 2250
[2]
  EC50: 3.4 nM
  Maximum mean fluorescence intensity: 70300
[3]
  Maximum mean fluorescence intensity: 239
  binding result: no binding
[4]
  EC50: 5.69 nM
  Maximum mean fluorescence intensity: 47500

B2: S009-F8-36.12 (antibody, human IgG1, kappa, V domains shown)
VH: EVQLQQSGPELVKPGASVKISCKASGYTFTDYYMNWVKQSHGKSLEWIGDINPNNGGTSYNQKFKGKATLTVDKSSSTAYMELRSLTSEDSAVYYCASWGYGSSSRGYFDYWGQGTTLTVSS
VL: QIVLSQSPAILSASPGEKVTMTCRASSSVSYMHWYQQKPGSSPKPWIYATSNLASGVPARFSGSGSGTSYSLTISRVEAEDAATYYCQQWSSNPWTFGGGTKLEIKR
notes: as for B1
[5]
  EC50: 15.2 nM
  Maximum mean fluorescence intensity: 2510
[6]
  EC50: 11 nM
  Maximum mean fluorescence intensity: 7970
[7]
  competition rate: 6.4%
[8]
  competition rate: 17.4%
[9]
  competition rate: 9.4%
[10]
  competition rate: 9.8%
[11]
  competition rate: 5.9%
[12]
  competition rate: -47.7%
[13]
  competition rate: -3.1%
[14]
  competition rate: 10.3%
[15]
  competition rate: -10.7%
[16]
  competition rate: 8.3%
[17]
  competition rate: 61.5%
[18]
  Kd: 103 nM
  koff: 0.0122 s⁻¹
  kon: 118000 M⁻¹ s⁻¹

B3: S009-F1.56.1 (antibody, human IgG1, kappa, V domains shown)
VH: EVQLQQSGAEVVKPGASVKLSCTASGFNIRHTYMHWVKQRPEQGLEWIGRIDPANGNTEYDPKFQGKATITADTSSNTAYLQLSSLTSEDTAVYYCARDGWYIDVWGAGTTVTVSS
VL: DIVMSQSPSSLAVSVGEKVTMSCKSSQSLLYSNNQKNYLAWYQQKPGQSPKLLIYWASTRESGVPDRFTGSGSGTDFTLTISSVKAEDLAVYYCQRYYSYPWTFGGGTKLEIKR
notes: as for B1
[1]
  EC50: 0.67 nM
  Maximum mean fluorescence intensity: 11700
[2]
  EC50: 1.59 nM
  Maximum mean fluorescence intensity: 96300
[3]
  Maximum mean fluorescence intensity: 363
  binding result: no binding
[4]
  EC50: 0.79 nM
  Maximum mean fluorescence intensity: 43100

B4: S009-F8-24.14 (antibody, human IgG1, kappa, V domains shown)
VH: EFQLQQSGPELVKPGASVKISCKASGYSFTDYNMNWVKLSNGKSLEWIGVIIPNYGTSSYNQKFKGKATLTVDQSSSTAYMQLNSLTSEDSAVYYCARWDNYYGSSLDYWGQGTTLTVSS
VL: DIVMTQSQKFMSTTVGDRVSITCKASQNVGTAVAWYQQKPGQSPKLLIYSASNRYTGVPDRFTGSGSGTDFILTISNMQSEDLADYFCQQYSSYPLTFGAGTKLELKR
notes: as for B1
[5]
  EC50: 11.5 nM
  Maximum mean fluorescence intensity: 4700
[6]
  Maximum mean fluorescence intensity: 82
  binding result: no binding
[7]
  competition rate: 5.3%
[8]
  competition rate: 22.9%
[9]
  competition rate: 43.7%
[10]
  competition rate: 57.6%
[11]
  competition rate: 74.5%
[12]
  competition rate: -65.5%
[13]
  competition rate: 80.3%
[14]
  competition rate: 77%
[15]
  competition rate: 95%
[16]
  competition rate: 27.8%
[17]
  competition rate: -142%
[18]
  Kd: 9.13 nM
  koff: 0.00501 s⁻¹
  kon: 549000 M⁻¹ s⁻¹

B5: S009-F1.2.12 (antibody, human IgG1, kappa, V domains shown)
VH: QVQLKQTGPGLVQPSQSLSITCTVSGFSLTNYAVHWVRQSPGKGLEWLGVIWSGGATDYNTVFISRLSISKDNSKSQVFFKVNSLQVDDTAIYYCARTGSGYAMDYWGQGTSVTVSS
VL: DIVLTQSPATLSVTPGDRVSLSCRTSHNVNTYLHWYQQKSHESPRLLIKYASQSISEIPSRFSGSGSGTNFTLSINSVETEDFGMYFCHQTNRWPLTFGAGTKLELKR
notes: as for B1
[1]
  EC50: 1.87 nM
  Maximum mean fluorescence intensity: 9620
[2]
  EC50: ~0.86 nM
  Maximum mean fluorescence intensity: 87200
[3]
  Maximum mean fluorescence intensity: 239
  binding result: no binding
[4]
  EC50: 1.39 nM
  Maximum mean fluorescence intensity: 29200

B6: S009-F1.35.24 (antibody, human IgG1, kappa, V domains shown)
VH: EVQLQQSEPELVKPGASVRISCKASGYSFTDYYMHWVKQSPENRLEWIGEINPSTGGTSYNPKFKDKATLTVDKSSSTAYMQLKSLTSEESAVYYCTRYHYYGSSSYVMDYWGQGTSVTVSS
VL: QIVLTQSPAILSASPGERVTMTCSASSSVYHMHWFQQKSGTSPKRWVYDTSKLASGVPARFSGSGSGTSYSLTISSMEAEDAATYYCQHWRTNPLTFGAGTKLELKR
notes: as for B1
[1]
  EC50: 2.08 nM
  Maximum mean fluorescence intensity: 10500
[2]
  EC50: 2.93 nM
  Maximum mean fluorescence intensity: 109000
[3]
  Maximum mean fluorescence intensity: 680
  binding result: no binding
[4]
  EC50: 4.75 nM
  Maximum mean fluorescence intensity: 52100
